# Reference: article PMC5000626, “Urinary Dopamine as a Potential Index of the Transport Activity of Multidrug and Toxin Extrusion in the Kidney” (International Journal of Molecular Sciences, 2016)
# Tested on: NCCc1ccc(O)c(O)c1
# Test: cells, lysate or membranes
# Details: other: [3H]dopamine uptake at 1 min, HEK293 cells expressing hMATE2-K, mean ± S.E., n=3; pH 7.4; 37.0 °C
# Sequence of hMATE2-K (Homo sapiens) (chain, as listed by the source): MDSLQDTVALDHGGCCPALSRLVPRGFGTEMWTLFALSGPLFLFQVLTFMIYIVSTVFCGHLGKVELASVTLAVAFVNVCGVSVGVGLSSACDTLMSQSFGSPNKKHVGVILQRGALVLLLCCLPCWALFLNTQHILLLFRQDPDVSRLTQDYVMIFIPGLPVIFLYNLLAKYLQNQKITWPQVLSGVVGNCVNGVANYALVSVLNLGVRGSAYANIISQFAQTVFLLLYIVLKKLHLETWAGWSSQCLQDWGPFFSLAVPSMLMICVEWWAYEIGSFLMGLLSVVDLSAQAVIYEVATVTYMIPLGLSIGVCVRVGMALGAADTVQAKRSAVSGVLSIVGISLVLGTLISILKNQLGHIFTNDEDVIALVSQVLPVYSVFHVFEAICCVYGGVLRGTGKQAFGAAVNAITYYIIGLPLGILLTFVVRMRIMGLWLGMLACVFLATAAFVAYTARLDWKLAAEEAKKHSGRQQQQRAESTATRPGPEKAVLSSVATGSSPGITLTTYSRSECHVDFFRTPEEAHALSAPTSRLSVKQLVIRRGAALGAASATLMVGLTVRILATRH
substance,measurement,value
hMATE2-K (Homo sapiens),Km,2480 ± 650 µM
